Laboratory results taken from publication PMC10232437 (Scientific Reports, 2023).

Biological target: the molecule itself
Assay: non-reducing SDS-PAGE with western blot; insoluble fraction (final pellet after Triton X-100 extraction) of SN tissue from control, MPTP/probenecid and NSA-treated mice, resuspended by sonication in 2% SDS lysis buffer, loaded with non-reducing sample buffer; anti-MLKL blot

B1: mixed lineage kinase domain-like protein (natural protein, UniProt Q9D2Y4 1-472, looked up)
chain: MDKLGQIIKLGQLIYEQCEKMKYCRKQCQRLGNRVHGLLQPLQRLQAQGKKNLPDDITAALGRFDEVLKEANQQIEKFSKKSHIWKFVSVGNDKILFHEVNEKLRDVWEELLLLLQVYHWNTVSDVSQPASWQQEDRQDAEEDGNENMKVILMQLQISVEEINKTLKQCSLKPTQEIPQDLQIKEIPKEHLGPPWTKLKTSKMSTIYRGEYHRSPVTIKVFNNPQAESVGIVRFTFNDEIKTMKKFDSPNILRIFGICIDQTVKPPEFSIVMEYCELGTLRELLDREKDLTMSVRSLLVLRAARGLYRLHHSETLHRNISSSSFLVAGGYQVKLAGFELSKTQNSISRTAKSTKAERSSSTIYVSPERLKNPFCLYDIKAEIYSFGIVLWEIATGKIPFEGCDSKKIRELVAEDKKQEPVGQDCPELLREIINECRAHEPSQRPSVDGRSLSGRERILERLSAVEESTDKKV
notes: mixed lineage kinase domain-like protein (MLKL), mouse, endogenous in the substantia nigra of C57BL/6 mice; Seen as a tetramer band in the insoluble fraction (non-reducing sample buffer) and as an oligomer on an A11 blot; also called MLKL; source: endogenous, mouse substantia nigra tissue lysate
stoichiometry N: 4
